Measured values from paper PMC12199305 (2025).

Columns and labels:
MEF2A [1] = molecular target: T1, MEF2A (human, UniProt Q02078 1-507); experiment: SPR
MEF2A [2] = molecular target: T1, MEF2A; experiment: SPR; remark: listed apart in the source

T1 sequence (Q02078 whole entry): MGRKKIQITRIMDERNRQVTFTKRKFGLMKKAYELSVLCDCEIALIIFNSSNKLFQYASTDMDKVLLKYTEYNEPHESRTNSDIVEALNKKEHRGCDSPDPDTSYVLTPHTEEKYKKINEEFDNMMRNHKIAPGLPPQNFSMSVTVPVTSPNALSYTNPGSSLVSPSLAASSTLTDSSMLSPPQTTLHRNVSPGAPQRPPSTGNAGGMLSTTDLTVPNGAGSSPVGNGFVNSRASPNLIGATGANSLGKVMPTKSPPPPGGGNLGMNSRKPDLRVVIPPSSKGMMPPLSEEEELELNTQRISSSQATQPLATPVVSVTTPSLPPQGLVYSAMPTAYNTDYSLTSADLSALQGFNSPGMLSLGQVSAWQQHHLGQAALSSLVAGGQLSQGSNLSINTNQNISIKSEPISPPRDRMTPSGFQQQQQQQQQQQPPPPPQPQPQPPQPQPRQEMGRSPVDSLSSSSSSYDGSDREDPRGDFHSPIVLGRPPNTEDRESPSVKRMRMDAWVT

Row | Binder | koff (MEF2A [1]) | Kd (MEF2A [2])
1 | HDAC9 (enzyme) MHSMISSVDVKSEVPVGLEPISPLDLRTDLRMMMPVVDPVVREKQLQQELLLIQQQQQIQKQLLIAEFQKQHENLTRQHQAQLQEHIKELLAIKQQQELLEKEQKLEQQRQEQEVERHRREQQLPPLRGKDRGRERAVASTEVKQKLQEFLLSKSATKDTPTNGKNHSVSRHPKLWYTAAHHTSLDQSSPPLSGTSPSYKYTLPGAQDAKDDFPLRKTASEPNLKVRSRLKQKVAERRSSPLLRRKDGNVVTSFKKRMFEVTESSVSSSSPGSGPSSPNNGPTGSVTENETSVLPPTPHAEQMVSQQRILIHEDSMNLLSLYTSPSLPNITLGLPAVPSQLNASNSLKEKQKCETQTLRQGVPLPGQYGGSIPASSSHPHVTLEGKPPNSSHQALLQHLLLKEQMRQQKLLVAGGVPLHPQSPLATKERISPGIRGTHKLPRHRPLNRTQSAPLPQSTLAQLVIQQQHQQFLEKQKQYQQQIHMNKLLSKSIEQLKQPGSHLEEAEEELQGDQAMQEDRAPSSGNSTRSDSSACVDDTLGQVGAVKVKEEPVDSDEDAQIQEMESGEQAAFMQQPFLEPTHTRALSVRQAPLAAVGMDGLEKHRLVSRTHSSPAASVLPHPAMDRPLQPGSATGIAYDPLMLKHQCVCGNSTTHPEHAGRIQSIWSRLQETGLLNKCERIQGRKASLEEIQLVHSEHHSLLYGTNPLDGQKLDPRILLGDDSQKFFSSLPCGGLGVDSDTIWNELHSSGAARMAVGCVIELASKVASGELKNGFAVVRPPGHHAEESTAMGFCFFNSVAITAKYLRDQLNISKILIVDLDVHHGNGTQQAFYADPSILYISLHRYDEGNFFPGSGAPNEVGTGLGEGYNINIAWTGGLDPPMGDVEYLEAFRTIVKPVAKEFDPDMVLVSAGFDALEGHTPPLGGYKVTAKCFGHLTKQLMTLADGRVVLALEGGHDLTAICDASEACVNALLGNELEPLAEDILHQSPNMNAVISLQKIIEIQSMSLKFS | 0.0082 s⁻¹ | 19.1 nM
2 | HDAC7 (enzyme) MDLRVGQRPPVEPPPEPTLLALQRPQRLHHHLFLAGLQQQRSVEPMRLSMDTPMPELQVGPQEQELRQLLHKDKSKRSAVASSVVKQKLAEVILKKQQAALERTVHPNSPGIPYRTLEPLETEGATRSMLSSFLPPVPSLPSDPPEHFPLRKTVSEPNLKLRYKPKKSLERRKNPLLRKESAPPSLRRRPAETLGDSSPSSSSTPASGCSSPNDSEHGPNPILGSEALLGQRLRLQETSVAPFALPTVSLLPAITLGLPAPARADSDRRTHPTLGPRGPILGSPHTPLFLPHGLEPEAGGTLPSRLQPILLLDPSGSHAPLLTVPGLGPLPFHFAQSLMTTERLSGSGLHWPLSRTRSEPLPPSATAPPPPGPMQPRLEQLKTHVQVIKRSAKPSEKPRLRQIPSAEDLETDGGGPGQVVDDGLEHRELGHGQPEARGPAPLQQHPQVLLWEQQRLAGRLPRGSTGDTVLLPLAQGGHRPLSRAQSSPAAPASLSAPEPASQARVLSSSETPARTLPFTTGLIYDSVMLKHQCSCGDNSRHPEHAGRIQSIWSRLQERGLRSQCECLRGRKASLEELQSVHSERHVLLYGTNPLSRLKLDNGKLAGLLAQRMFVMLPCGGVGVDTDTIWNELHSSNAARWAAGSVTDLAFKVASRELKNGFAVVRPPGHHADHSTAMGFCFFNSVAIACRQLQQQSKASKILIVDWDVHHGNGTQQTFYQDPSVLYISLHRHDDGNFFPGSGAVDEVGAGSGEGFNVNVAWAGGLDPPMGDPEYLAAFRIVVMPIAREFSPDLVLVSAGFDAAEGHPAPLGGYHVSAKCFGYMTQQLMNLAGGAVVLALEGGHDLTAICDASEACVAALLGNRVDPLSEEGWKQKPNLNAIRSLEAVIRVHSKYWGCMQRLASCPDSWVPRVPGADKEEVEAVTALASLSVGILAEDRPSEQLVEEEEPMNL | 0.00082 s⁻¹ | 3.5 nM
3 | HDAC4 (enzyme) MSSQSHPDGLSGRDQPVELLNPARVNHMPSTVDVATALPLQVAPSAVPMDLRLDHQFSLPVAEPALREQQLQQELLALKQKQQIQRQILIAEFQRQHEQLSRQHEAQLHEHIKQQQEMLAMKHQQELLEHQRKLERHRQEQELEKQHREQKLQQLKNKEKGKESAVASTEVKMKLQEFVLNKKKALAHRNLNHCISSDPRYWYGKTQHSSLDQSSPPQSGVSTSYNHPVLGMYDAKDDFPLRKTASEPNLKLRSRLKQKVAERRSSPLLRRKDGPVVTALKKRPLDVTDSACSSAPGSGPSSPNNSSGSVSAENGIAPAVPSIPAETSLAHRLVAREGSAAPLPLYTSPSLPNITLGLPATGPSAGTAGQQDAERLTLPALQQRLSLFPGTHLTPYLSTSPLERDGGAAHSPLLQHMVLLEQPPAQAPLVTGLGALPLHAQSLVGADRVSPSIHKLRQHRPLGRTQSAPLPQNAQALQHLVIQQQHQQFLEKHKQQFQQQQLQMNKIIPKPSEPARQPESHPEETEEELREHQALLDEPYLDRLPGQKEAHAQAGVQVKQEPIESDEEEAEPPREVEPGQRQPSEQELLFRQQALLLEQQRIHQLRNYQASMEAAGIPVSFGGHRPLSRAQSSPASATFPVSVQEPPTKPRFTTGLVYDTLMLKHQCTCGSSSSHPEHAGRIQSIWSRLQETGLRGKCECIRGRKATLEELQTVHSEAHTLLYGTNPLNRQKLDSKKLLGSLASVFVRLPCGGVGVDSDTIWNEVHSAGAARLAVGCVVELVFKVATGELKNGFAVVRPPGHHAEESTPMGFCYFNSVAVAAKLLQQRLSVSKILIVDWDVHHGNGTQQAFYSDPSVLYMSLHRYDDGNFFPGSGAPDEVGTGPGVGFNVNMAFTGGLDPPMGDAEYLAAFRTVVMPIASEFAPDVVLVSSGFDAVEGHPTPLGGYNLSARCFGYLTKQLMGLAGGRIVLALEGGHDLTAICDASEACVSALLGNELDPLPEKVLQQRPNANAVRSMEKVMEIHSKYWRCLQRTTSTAGRSLIEAQTCENEEAETVTAMASLSVGVKPAEKRPDEEPMEEEPPL | 0.0025 s⁻¹ | 5 nM
